From patent US20090318342A1, “Compounds” (IMPERIAL INNOVATIONS LIMITED, priority 2005, published 2009)

T1: ADAMTS-5 (Homo sapiens, UniProt Q9UNA0)
T1 sequence (Q9UNA0 262-930): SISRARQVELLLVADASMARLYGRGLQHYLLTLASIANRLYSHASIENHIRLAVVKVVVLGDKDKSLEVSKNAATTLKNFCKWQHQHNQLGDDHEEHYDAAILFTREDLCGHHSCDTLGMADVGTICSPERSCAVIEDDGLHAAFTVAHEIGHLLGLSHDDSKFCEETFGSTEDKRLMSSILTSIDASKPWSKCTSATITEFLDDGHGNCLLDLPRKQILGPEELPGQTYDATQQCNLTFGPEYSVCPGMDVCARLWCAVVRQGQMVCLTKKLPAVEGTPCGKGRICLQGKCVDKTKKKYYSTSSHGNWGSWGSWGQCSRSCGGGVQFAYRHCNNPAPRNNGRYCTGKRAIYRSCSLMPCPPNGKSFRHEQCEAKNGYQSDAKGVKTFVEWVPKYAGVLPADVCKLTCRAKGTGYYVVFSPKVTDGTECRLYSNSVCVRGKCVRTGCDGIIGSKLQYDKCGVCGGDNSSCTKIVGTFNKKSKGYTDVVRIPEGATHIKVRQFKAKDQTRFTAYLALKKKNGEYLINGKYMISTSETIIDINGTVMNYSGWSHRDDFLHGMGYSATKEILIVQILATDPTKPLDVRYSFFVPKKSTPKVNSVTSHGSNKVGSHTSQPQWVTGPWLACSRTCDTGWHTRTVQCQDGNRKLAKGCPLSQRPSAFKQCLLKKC

B1: -1A: N-TIMP-3 mutant with the addition of an N-terminal alanine extension (-1A) (protein)
chain: ACTCSPSHPQDAFCNSDIVIRAKVVGKKLVKEGPFGTLVYTIKQMKMYRGFTKMPHVQYIHTEASESLCGLKLEVNKYQYLLTGRVYDGKMYTGLCNFVERWDQLTLSQRKGLNYRYHLGCN
B2: N-TIMP-3: N-terminal inhibitory domain of TIMP-3 (residues 1 to 121), C-terminally His-tagged, wild-type (protein)
chain: CTCSPSHPQDAFCNSDIVIRAKVVGKKLVKEGPFGTLVYTIKQMKMYRGFTKMPHVQYIHTEASESLCGLKLEVNKYQYLLTGRVYDGKMYTGLCNFVERWDQLTLSQRKGLNYRYHLGCN
B3: (-2A)N-TIMP-3: N-TIMP-3 mutant with two alanine residues on the N-terminal side of Cysteine1 of the TIMP-3 sequence (protein)
chain: AACTCSPSHPQDAFCNSDIVIRAKVVGKKLVKEGPFGTLVYTIKQMKMYRGFTKMPHVQYIHTEASESLCGLKLEVNKYQYLLTGRVYDGKMYTGLCNFVERWDQLTLSQRKGLNYRYHLGCN

Biological target: T1, ADAMTS-5
Test: Aggrecanase assay with GST-IGD-FLAG substrate, ADAMTS-5
Format: biochemical
Details: for Ki: Table 3, GST-IGD-FLAG substrate, pH 7.5, 37° C., read-out: Ki(app) ADAMTS-5
Protocol: FIG. 8. Graphs of Ki(app) determination. The GST-IGD-FLAG substrate assay was used to determine the Ki(app) of the N-terminal reactive site mutants against ADAMTS-4 (filled squares) and ADAMTS-5 (open circles).
The substrate containing glutathione S-transferase (GST) fused with the interglobular domain (IGD) of aggrecan (Tyr^331 to Gly^457) attached with a C-terminal FLAG sequence (GST-IGD-FLAG) was prepared by cloning it into pGEX-4T1 at the EcoR1 and Xho1 cloning sites. This substrate was expressed in E. coli strain BL-21 (non-DE3) transfected with the pGEX4T1 GST-IGD-FLAG plasmid by induction with […] isopropyl-beta-D-thiogalactopyranoside (IPTG). After induction, bacteria were collected by centrifugation and resuspended in 20 ml of 50 mM Tris-HCl (pH 8.0), 150 mM NaCl, 0.02% NaN3, […] DTT, […] EDTA with proteinase inhibitor cocktail set II inhibitors (Merck, Nottingham, UK). The resuspended bacteria were then disrupted mechanically using a French Press (5×1500 Psi). After centrifugation at 24,000 g (30 min, 4° C.), the supernatant, containing the expressed GST-IGD-FLAG, was applied to a glutathione-Sepharose 4B column (Qiagen, Crawley, UK). The column was washed with 0.5 M NaCl, 50 mM Tris-HCl (pH 8.0) and eluted with 10 mM reduced glutathione, 50 mM Tris-HCl (pH 8.0). The eluted material was dialysed three times against 10 volumes of 50 mM Tris-HCl (pH 8.0), 150 mM NaCl. […] The concentration of intact substrate (52 kDa) was determined by comparison with Coomassie Brilliant Blue staining of known amounts of bovine serum albumin (GE Healthsciences, Buckinghampshire, UK). […]
Aggrecanase assays were carried out in 50 mM Tris HCl pH 7.5, 150 mM NaCl, 10 mM CaCl2, 0.02% NaN3, 0.05% Brij-35 at 37° C. […] The stained gels were then scanned using a scanning densitometer (Biorad GS-710, Hemel Hempstead, UK) and the band intensity of the product (17 kDa) quantified using the 1D Phoretix quantification software (Nonlinear Dynamics, Newcastle upon Tyne, UK). Background subtraction was done using the rolling ball method, and band intensity expressed as pixel volumes.

Molecule	Ki [nM]	Potency for ADAMTS-5 relative to ADAMTS-4 (ADAMTS-5 versus ADAMTS-4)
B1	1.9 ± 0.6	–
B2	0.4 ± 0.2	–
B3	–	about 45 times
